Results on one sequence are retold here after publication PMC12772324.

For the series, the target named is T1, HutC (Pseudomonas aeruginosa PAO1) (UniProt Q9HU78).
T1 sequence: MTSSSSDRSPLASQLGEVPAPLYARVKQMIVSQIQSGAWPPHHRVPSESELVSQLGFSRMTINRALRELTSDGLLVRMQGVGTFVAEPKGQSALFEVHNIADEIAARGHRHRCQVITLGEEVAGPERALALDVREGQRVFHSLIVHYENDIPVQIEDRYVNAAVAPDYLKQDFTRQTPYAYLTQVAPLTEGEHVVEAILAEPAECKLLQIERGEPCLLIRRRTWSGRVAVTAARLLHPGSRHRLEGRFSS
In words: EMSA. The settings on record: 10 mM Tris-HCl pH 7.5, 100 mM NaCl, 1 mM DTT, 3 ng/uL sheared salmon sperm DNA, 1% glycerol, 2 ng/uL probe, 20 min at room temperature; 6% native gel, 0.5x TBE. (In general: Mobility shift assays separate free from complexed probe on a gel.)

As to “ACGGCGGCCTGAGCCGCCGGCCAATAACAATGATCGAGGCCGTTCCCCCGGGCGCGGCCCGCAGGTTTTCCAACTGCCTTTCCCAATCGTGCATCTGGAGCGTCGAACC (double strand) [hutG -108 to -1]”, the binding result is on record as “binds”.
